Test results: article PMC4851077

Key:
[1] = target: concanavalin A extracted from Jack beans (Con A, type V, MW ≈ 104,000) (Jack bean); test: quartz crystal microbalance (QCM); layer-by-layer adsorption on Au/MPS/PDDA-coated quartz resonator; alternate immersion in Con A (1 mg/mL, pH 7.0) and GOD (1 mg/mL, pH 7.0) for 20 min each, 0.1 M Tris-HCl with 0.1 M NaCl, 1 mM MnCl2, 1 mM CaCl2; washed, dried, frequency measured in air
[2] = target: glucose oxidase (GOD, E.C. 1.1.3.4, type VII, MW ≈ 160,000) (UniProt P13006); test: as above

“glucose oxidase (GOD, E.C. 1.1.3.4, type VII, MW ≈ 160,000) (from UniProt P13006 17-605) (enzyme)” was tested, and the average QCM frequency decrease for each layer [1] was 58 Hz.

“concanavalin A extracted from Jack beans (Con A, type V, MW ≈ 104,000) (natural protein)” gave an average QCM frequency decrease for each layer [2] of 82 Hz.
